For experiment [1], the target named is T1, human recombinant DLL3 antigen (Homo sapiens, UniProt Q9NYJ7).
T1 sequence (Q9NYJ7 27-618): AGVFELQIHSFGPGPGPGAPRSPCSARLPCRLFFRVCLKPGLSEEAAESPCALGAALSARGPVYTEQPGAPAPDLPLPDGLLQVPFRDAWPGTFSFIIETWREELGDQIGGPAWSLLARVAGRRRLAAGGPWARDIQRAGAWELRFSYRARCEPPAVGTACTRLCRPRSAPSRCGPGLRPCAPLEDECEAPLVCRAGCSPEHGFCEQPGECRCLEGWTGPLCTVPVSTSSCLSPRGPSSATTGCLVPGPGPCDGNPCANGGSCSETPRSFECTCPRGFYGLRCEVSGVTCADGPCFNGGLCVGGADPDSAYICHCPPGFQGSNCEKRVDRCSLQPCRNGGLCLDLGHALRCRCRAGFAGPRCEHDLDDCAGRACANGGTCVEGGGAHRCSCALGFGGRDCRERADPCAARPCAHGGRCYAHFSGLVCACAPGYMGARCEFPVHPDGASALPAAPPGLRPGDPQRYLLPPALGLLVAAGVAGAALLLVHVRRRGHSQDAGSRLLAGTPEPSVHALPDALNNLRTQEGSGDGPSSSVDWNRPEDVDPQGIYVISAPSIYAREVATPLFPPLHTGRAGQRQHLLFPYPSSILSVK
Put plainly: ELISA, binding potency to human recombinant DLL3 antigen. As to conditions: compared to unconjugated Rovalpituzumab. The method, then:
The relevant antigen was immobilized on ELISA plate by absorption. The plate was washed (PBS with 0.1% Tween 20) and incubated with blocking buffer (PBS + 3% BSA) for 2 h ± 1 h to reduce unspecific binding. Relevant antibodies and ACCs diluted in assay buffer (PBS with 0.05% Tween 20 + 1.5% BSA). The blocking buffer was discarded, and the antibodies and ACCs and controls were applied in triplicates to the plate according to a plate set-up defined in each protocol. After incubation for 1 h ± 30 min at RT, the plate was washed. A horse radish peroxidase (HRP)-conjugated secondary antibody binding specifically to the primary mAb (anti-human IgG-HRP) was added to the plate. After incubation for 1 hour ± 30 min at RT, the plate was washed. A chromogenic substrate (2,2'-azino-bis (3-ethylbenzothiazoline-6-sulphonic acid) (ABTS)), for HRP leading to the formation of a green color was added to the plate and used for detection. The absorbance of the colored reaction product was measured with an absorbance plate reader, e.g. EnVision 2103 Multilabel Reader from Perkin Elmer, or iMark Microplate Absorbance Reader from Bio-Rad.
Absorbance against the log of the antibody concentration was plotted on the GraphPad Prism software.
The binding potency of Rovalpituzumab-macropa, Rovalpituzumab-DOTA was compared to unconjugated Rovalpituzumab by using an ELISA assay. […]

The next experiment has as its target T2, recombinant human DLL3 (Homo sapiens, UniProt Q9NYJ7).
T2 sequence (Q9NYJ7 27-618): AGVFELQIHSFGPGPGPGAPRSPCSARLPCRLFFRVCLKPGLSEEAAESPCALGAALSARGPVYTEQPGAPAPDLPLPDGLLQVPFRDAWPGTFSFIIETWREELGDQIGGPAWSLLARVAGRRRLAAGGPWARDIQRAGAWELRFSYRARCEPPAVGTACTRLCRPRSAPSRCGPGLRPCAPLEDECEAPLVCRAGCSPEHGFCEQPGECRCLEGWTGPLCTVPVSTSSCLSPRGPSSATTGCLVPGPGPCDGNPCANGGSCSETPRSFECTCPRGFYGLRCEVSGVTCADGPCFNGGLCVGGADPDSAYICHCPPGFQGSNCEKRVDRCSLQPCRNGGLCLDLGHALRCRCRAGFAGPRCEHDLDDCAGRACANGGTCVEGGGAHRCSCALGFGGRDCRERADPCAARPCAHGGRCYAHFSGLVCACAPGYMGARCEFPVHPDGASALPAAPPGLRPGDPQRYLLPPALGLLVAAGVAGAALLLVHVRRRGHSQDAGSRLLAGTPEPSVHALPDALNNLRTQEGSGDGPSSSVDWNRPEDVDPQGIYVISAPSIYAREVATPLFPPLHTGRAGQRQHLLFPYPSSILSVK
Put plainly: Immunoreactive fraction (IRF), binding to DLL3-coated beads. Particulars: 20 kBq/µg. The protocol: Shortly after completion of the radiolabeling, the binding was assessed by measuring the fraction of radiolabeled antibody-chelator conjugate bound to relevant antigen coated magnetic beads (Thermo Fisher Scientific). In short, beads were placed in 2 mL Eppendorf tubes in 90 µL buffer (PBS/0.1% Tween 20/1% BSA). The radiolabeled compounds were diluted to 5 Bq/µL in buffer and 50 Bq were added to each bead-containing tube. The binding lasted for 60 min while shaking at 750 rpm at room temperature. After completion of the binding step, magnet (DynaMag-2) was used to separate the beads from […] supernatant. The radio activities in the supernatant and in the beads of each sample were measured using a high purity Germanium detector (Ortec). […] Total binding was defined as [(activity in beads […])/ (total activity)] × 100.

We go through two molecules from patent EP4552657A1, “RADIOPHARMACEUTICAL COMPLEXES AND COMBINATIONS” (priority 2023, dated 2025).

B1: Rovalpituzumab-DOTA (conjugate, chains of the INN, looked up)
VH: QVQLVQSGAEVKKPGASVKVSCKASGYTFTNYGMNWVRQAPGQGLEWMGWINTYTGEPTYADDFKGRVTMTTDTSTSTAYMELRSLRSDDTAVYYCARIGDSSPSDYWGQGTLVTVSS
VL: EIVMTQSPATLSVSPGERATLSCKASQSVSNDVVWYQQKPGQAPRLLIYYASNRYTGIPARFSGSGSGTEFTLTISSLQSEDFAVYYCQQDYTSPWTFGQGTKLEIK
modifications: DOTA chelator conjugate
Take B1: in experiment [1], the EC50 entry is given as “increased EC50” and the max absorbance value entry is recorded as “Slightly lower max absorbance value”.

B2: Ac-225-macropa-Rovalpituzumab (conjugate, chains of the INN, looked up)
VH: QVQLVQSGAEVKKPGASVKVSCKASGYTFTNYGMNWVRQAPGQGLEWMGWINTYTGEPTYADDFKGRVTMTTDTSTSTAYMELRSLRSDDTAVYYCARIGDSSPSDYWGQGTLVTVSS
VL: EIVMTQSPATLSVSPGERATLSCKASQSVSNDVVWYQQKPGQAPRLLIYYASNRYTGIPARFSGSGSGTEFTLTISSLQSEDFAVYYCQQDYTSPWTFGQGTKLEIK
modifications: macropa chelator, actinium-225
B2: the “amount of DLL3-coated beads at which the maximum binding was achieved” value with recombinant human DLL3 was 10 µg. Besides, the “maximum binding (IRF)” value in the experiment with recombinant human DLL3 (10 µg of DLL3-coated beads) came to 86%.
